In the DeepSol protein solubility set:

Assay: soluble on expression in E. coli; label from the status in PepcDB or PDB records

Sequence | soluble on expression in E. coli
MRGSHHHHHHTDPALRAAFRMSEQPRTIKIYNLLAGTNEFIGEGDAYIPPHTGLPANSTDIAPPDIPAGFVAVFNSDESSWHLVEDHRGKTVYDVASGNALFISELGPLPENVTWLSPEGEFQKWNGTAWVKDTEAEKLFRIREAEETKNNLMQVASEHIAPLQDAADLEIATEEEISLLEAWKKYRVLLNRVDTSTAQDIEWPALPGLCGR | soluble
MSSERQLAGRIVVPGEPLPEEVEASPPYVIDYKGVKRATVVGLLREKGDGGGRAFVKLKEIYVPQAGDVVIGLIQSVGIMNWFVDINSPYVAVLSVQDFLGRPFNPAVDDMQSLLKVGDYIKAKVVAFDKTRSPLLTVQGEGLGRIVRGKIVEISPAKVPRVIGRKMSMLKTLEEKTECKIFVARNGRIHLECPNEDLEAIAVMAIKIIDEEAYTSGLTKRIIKFIEEERRIREV | soluble
SNRFIAVFSDITRHKQTEEDLLRSEQHYRLLHETMLQGVVYQDASGKIISMNPAAERILGKTPAEFLGSSSVGEEYLTIREDGSMFPGLEHPAMVSLRTGQKVQGVVMGVYNPRENFYRWININAVPIFRTGEDRPFQVYTLFDDI | not soluble
MAIELHGAISPQDDGSFDSKTLGTICWGDHNNVYMVIGNQTLEGKISKIDRPLLVIQKSDKNHQENGEKNATVNAVIRKKLVFKTRPRPLVLSTVV | soluble
EGGDFVVGMVTDSGDIDDKSFNQQVWEGISRFAQENNAKCKYVTASTDAEYVPSLSAFADENMGLVVACGSFLVEAVIETSARFPKQKFLVIDAVVQDRDNVVSAVFGQNEGSFLVGVAAALKAKEAGKSAVGFIVGMELGMMPLFEAGFEAGVKAVDPDIQVVVEVANTFSDPQKGQALAAKLYDSGVNVIFQVAGGTGNGVIKEARDRRLNGQDVWVIGVDRDQYMDGVYDGSKSVVLTSMVKRADVAAERISKMAYDGSFPGGQSIMFGLEDKAVGIPEENPNLSSAVMEKIRSFEEKIVSKEIVVPVRSARMMN | soluble
MSLVNQLSLFIDVVQQGSFTKAAALHDMDNSALSKQIKKLEAELGVQLLNRSTRTFSLTPAGEEILEQAYQLVGSLDNVKSIADSYQAVPKGRIRITAPLHIGQGYLQPVISQFMTTYPDVEVVLMMDDKRSDIISEHFDVAFRLGRLDDSSLIAKKVADIRGVILASHSLIERFGEPSTPEELVNLPSVIYSNGTLTVDTVRLGESPDSSQFKSYKMKGNYKVNDVRTLLSAVQDGLGYAVVASSNLERSIESMGLTTLLTDYPLCNQGLAIYALYPHRKQTALVREFISAVQKHIGHPPLWEQHIPNFASLYPVKKGQ | not soluble
MRPMALPAWREVALPHEDIRRGRFDESTFAADLADVLAGRGPLEYRDPLTFFRKTYPTKGMVRLLGAVVRRLSGEKGGEPVVQIQTPFGGGKTHGLVALYHLFRSGEEARGTELYARVLEEAGVERIPEAKVAVFVGTAADPLKGRTPWGELALQLGHYGLLEEHDKARQAPGKERLYELFRAAGGPVLILMDEVAEYVARTVDPTALHKEGGSLEGGRAYQTQVLAFFQELTEAVKVAPQVALVMTIPSSAPYGEEGERALLQLQRIAGRLEAIYEPVKGWEIYDVIRTRLFEGIRDEGVVRKVAERYFELYRRLGTEVPDEARDPAYRERMRRAYPFHPELIDALYERWGTLSTFQRTRGVLRFLAEIVADLYGREHSAPLIHSAHVNLANPSIRRELVKHIGNEFDSVIAADIADPEGQAKAQRLDREMGSEYVRFQVASGLATAIFLYSFSGGERKGASPAQLRLAALRPEVPPPLVGDALGRLRELLWYLHEASGLYYFSSQPNLNRIVVERENAVDPEQIRQALRERLERIAGRELRVYLEPHSPQDVPDTKELKLAVLSEPSGSLAEELLEKAGTTFRTYKNTLFLLSPDPNSLGDLHRAARRYLALRSIREDRTLYGQLSAENRHRLDELLREADGALTQKLFMAYRRLTKPGRQGPETYDMGIPTVGEASTLAKRVYEYLKAREFLLERIAPRHLLSALAQGETGKPLQEVYEAFLRYPHLPVLKGWEVLEEAVRKGVAEGTFGLRVGERYYFQEPVLGIAWEEAFLVRKEALPPERESVVDGEKKGEASSEGVAPKPDSSEEEVPPDSSGGEARPERVQEYTVKVRLPWNRLSDFLRGVLMPLQREGAEMELQIELRARSQEGIPRATLDKIRETLDQLQAKVEEA | soluble
MDIISKSGEGNKYTINSAIAFVAYASHIDINTTEFSKVLSGLRDFINDEAIRLGGKISDGSFNKCNGDWYEWLIGIRAIEFFLESETNFIVVKMPNATSFDVMSIYKSCLSEFIYDLRSKLSLNNVNLITSNPDFSIIDIRGRREELKSMLKDISFSNISLSTISEIDNLYKNFIDYAELEHIKSFLSVKTTFRPDRRLQLAHEGSLMKALYTHLQTRTWTINPTGIRYYAAATSIGNADVIGLKTVATHSITDVKSLPQSAVDEIFKINSVLDVDSCLSHILSS | soluble
GMNNSLAFNHDTLPQKVMFGYGKSSAFLKQEVERRGSAKVMVIAGEREMSIAHKVASEIEVAIWHDEVVMHVPIEVAERARAVATDNEIDLLVCVGGGSTIGLAKAIAMTTALPIVAIPTTYAGSEATNVWGLTEAARKTTGVDLKVLPETVIYDSELTMSLPVEMSVASGLNGLAHCIDSLWGPNADPINAVLAAEGIRALNQGLPKIVANPHSIEGRDEALYGAYLAAVSFASAGSGLHHKICHTLGGTFNLPHAQTHATVLPYVLAFNAGDAPEAERRAAAAFGTDTALEGLQRLRLSVNAPKRLSDYGFEASGIAEAVDVTLEKVPANNPRPVTRENLSRLLEAALNGEDPAVLSAVLSN | soluble
MLTIAMPKGRIFEEAVELLRRGDYALPPEFTESRKLVIDVPEENMRFILAKPMDVVTYVEHGVADLGIAGKDVLMEEERDVYELLDLQISRCHLAVAGLPGAKMNEIAPRVATKYPNIASTYFREQGEQVEIIRLNGSIELAPLIGLADRIVDIVSTGRTLRENGLVELERIAEVTSRLIVNPASYRLNGGDIERLVDRLAAVIPQP | not soluble
SHVEYSRITKFFQEQPLEGYTLFSHRSAPNGFKVAIVLSELGFHYNTIFLDFNLGEHRAPEFVSVNPNARVPALIDHGMDNLSIWESGAILLHLVNKYYKETGNPLLWSDDLADQSQINAWLFFQTSGHAPMIGQALHFRYFHSQKIASAVERYTDEVRRVYGVVEMALAERREALVMELDTENAAAYSAGTTPMSQSRFFDYPVWLVGDKLTIADLAFVPWNNVVDRIGINIKIEFPEVYKWTKHMMRRPAVIKALRGE | soluble
MAFVKPILLKSATCLLPRVLKLLFATLKINVGYAGEKLPDDQRGVMFAFWHGKMIAGWLLARRLYPKREISAVVSLSGDGQILSDTLDRLGFHLIRGSSSRGKEVVRRGIGVALSNGGVAAVTPDGPRGPHHRFKYGTLRLAAQHRTPVVFAEISYDNARRLKSWDRFEIPLPFSRVRVTLHVVQVPEFPTEEAFRAWADELSTGFDDALEHHHHHH | not soluble
MGSDKIHHHHHHMNILIVYGTTEGQTGKIAARTATHLRERGHQVELRDSAALASDLKLGHFDAFVIAASVHQEHHQETVTNFVFAHHEALSTKPSALISVSLSAALGDQKKDAQKYVDRFVSVTDWQPSMTLLLGGALRFNKYDYFQEQFVKFVVMKSGDPSPERDHEFTDWNALANFADRFLETAG | not soluble
STSTFNPRECKLSKQEGQNYGFFLRIEKDTEGHLVRVVEKCSPAEKAGLQDGDRVLRINGVFVDKEEHMQVVDLVRKSGNSVTLLVLDGDSYEKAVKTRVDLKELGQSQKEQGLSDNILSPVMNGGVQTWTQPRLCYLVKEGGSYGFSLKTVQGKKGVYMTDITPQGVAMRAGVLADDHLIEVNGENVEDASHEEVVEKVKKSGSRVMFLLVDKETDKRHVEQKIQFKRETASLKLLPHQPRIVEMKKGSNGYGFYLRAGSEQKGQIIKDIDSGSPAEEAGLKNNDLVVAVNGESVETLDHDSVVEMIRKGGDQTSLLVVDKETDNMYRLAHFSPFLYYQSQELPNGSVKEAPAPTPTSLEVSSPPDTTEEVDHKPKLCRLAKGENGYGFHLNAIRGLPGSFIKEVQKGGPADLAGLEDEDVIIEVNGVNVLDEPYEKVVDRIQSSGKNVTLLVCGKKAYDYFQAKKIPIVSSLADPLDTPPDSKEGIVVESNHDSHMAKERAHSTASHSSSNSEDTEM | soluble
MGSDKIHHHHHHMKYKNLFFDLDDTIWAFSRNARDTFEEVYQKYSFDRYFDSFDHYYTLYQRRNTELWLEYGEGKVTKEELNRQRFFYPLQAVGVEDEALAERFSEDFFAIIPTKSGLMPHAKEVLEYLAPQYNLYILSNGFRELQSRKMRSAGVDRYFKKIILSEDLGVLKPRPEIFHFALSATASALRESLMIGDSWEADITGAHGVGMHQAFYNVTERTVFPFQPTYHIHSLKELMNLL | not soluble
